Where no end group is shown, it is not given here. The star is where a group is joined. For = O=C*
T1: human FPRL1 (human, UniProt P25090 1-351)
T1 construct: Expressed in CHO cells (No. 8); also called human-derived FPRL1
T1 sequence: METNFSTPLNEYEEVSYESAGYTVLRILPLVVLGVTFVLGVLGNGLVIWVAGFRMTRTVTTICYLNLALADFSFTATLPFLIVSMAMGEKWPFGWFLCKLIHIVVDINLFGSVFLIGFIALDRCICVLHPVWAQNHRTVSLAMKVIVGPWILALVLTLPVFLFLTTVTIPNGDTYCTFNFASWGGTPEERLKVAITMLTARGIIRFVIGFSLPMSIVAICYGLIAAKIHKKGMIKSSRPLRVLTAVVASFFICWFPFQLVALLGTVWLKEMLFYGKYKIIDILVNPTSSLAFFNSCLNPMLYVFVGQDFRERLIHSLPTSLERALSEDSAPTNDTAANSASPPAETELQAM

B1: porcine FPRL1 ligand P3 (pfCYOX-1(1-13)) (peptide)
peptide: For-MFVNRWLYSTNHK
notes: The purified fraction also held a Met(O) oxidant; also called porcine FPRL ligand P3; porcine intrinsic FPRL1 ligand P3
B2: human FPRL1 ligand P3 (hfCYOX-1(1-13)) (peptide)
peptide: For-MFADRWLFSTNHK
notes: Synthesized at Peptide Institute, Inc; also called human FPRL ligand P3

Molecular target: T1, human FPRL1
Experiment: competitive inhibition of binding of 125I-labeled compound to membrane fraction of human FPRL1-expressing CHO cells, filter trapping
Protocol: Then, by reverse phase HPLC using TSKgel ODS-80TM CTR 4.6 x 100 mm column, a peak of labeled form, which was produced by the reaction, was fractionated. The fraction was mixed with an equal volume of assay buffer (50 mM Tris-HCI/pH7.5, 5 mM EDTA, 0.5 mM PMSF, 20 μg/ml leupeptine, 0.1 μtg/ml pepstatin A, 4 μg/ml E-64 (Peptide Institute), and 0.1% bovine serum albumin) and stored at −30° C. until use.
Human FPRL1-expressing CHO cells (No. 8) were cultivated, collected using PBS containing 5 mM EDTA from culture vessel, and suspended in assay buffer containing no bovine serum albumin, which is described above. Homogenization using Polytron homegenizer (Kinematica) at 18,000 rpm for 40 seconds was performed three times. After centrifugation (1000xg, 4° C., 10 minutes), supernatant was recovered. […]
Competitive inhibition test was carried out under the following conditions. […] After completely drying the filter, Microcinti 0 (Packard) was added to the filter, and a level of labeled form co-trapped with the membrane fraction on the filter was measured using Topcount (Pakard). Non-specific binding level was subtracted from each measured value. Then the ratio of reduced binding level by addition of test sample to the well with notest sample (total binding level), that is, the inhibition rate was calculated. Further, from dosage of test sample-inhibition curve, IC₅₀ was calculated (Table 1).

Binder	IC50
B1	0.15 nM
B2	1.1 nM

Source: patent US20070065819A1 (Takeda / Millennium, published 2007)
